Ends that are not written are not given here.
Experiments:
Assay type in all cases: physicochemical
[1] = HPLC-assay for in-use stability after reconstitution with 4.2% sodium hydrogen carbonate solution (Example 2, peptides SEQ ID NO 1-10)
Protocol: Resolubilization procedure: For clinical trials the above described formulation is dissolved in 700 μl sodium hydrogen carbonate (4.2%). Remove plastic cap from one vial. Unpack and remove sodium hydrogen carbonate (4.2%) from the refrigerator at least 30 min before resolubilization to bring them up to room temperature before injection. Prepare syringe and needle for reconstitution. Use aseptic technique to take 700 μL of diluent for reconstitution of the lyophilisate. To dissolve the lyophilisate, the vial and the diluent shall be shaken vigorously for 1 minute, check whether solution is clear, otherwise continue shaking for another minute until the solution is clear. 10 to 30 minutes after GM-CSF injection, use a new syringe to administer 500 μL reconstituted formulation i.d. at the same site. Administration has to occur within 1 h after reconstitution. Dissolved lyophilisate may be stored aseptically at room temperature for up to 1 hour following reconstitution.
However, a decrease of two specific peptides, i.e. IMA-CCN-001 and IMA-RGS-001 took place (see Table 6). As these peptides contain a cysteine residue, time-depending dimerization takes place.
(§1) Identity, purity and peptide content are determined by analytical RP-HPLC chromatography. Detection wavelength was 220 nm.

[2] = Stability of renal cell cancer vaccine test formulations at +25° C. and +40° C. by analytical HPLC assay; details: especially at +40° C.
Protocol: Various lyophilisates were tested with respect to stability of each individual peptide at +25° C. and […] using an analytical HPLC assay.
The peptides according to the SEQ ID NOs: 1 to 10 were lyophilised without any excipients and by addition of mannitol and Poloxamer 188 (LUTROL F68®) or TWEEN 80®.
The following test formulations were produced and stability were assessed at +25° C. and +40° C. by analytical HPLC assay:
Initial HPLC measurements have been performed for each formulation before storage in a climate chamber. For this purpose, the content of two vials was completely dissolved in 30% acetic acid and measured by RP-HPLC by repeat determination. To assure comparability between the individual measurements, β-Naphtyl-alanine was used as internal standard and lyophilized together with the peptides.
After 7, 14, 21, and 28 days, another two vials were removed from the climate chamber to assess stability.
Data assessment was performed by repeat determination of one vial. For one time point and temperature, two independent vials were used to obtain four data points in total. These values have been taken to calculate the standard deviation shown as error bars in the relevant diagram.

[3] = Solubility of peptide in 90% acetic acid and in water
Source text: Advantageously, the formulation according to the invention is suitable for stable formulations containing very hydrophobic peptides (for example IMA-CHI-001; SEQ ID NO: 23).

[4] = HPLC-assay for in-use stability after reconstitution with 4.2% sodium hydrogen carbonate solution (Example 3, peptides SEQ ID NO 11-23)
Protocol: For clinical trials the above described formulation is dissolved in 700 μl sodium hydrogen carbonate (4.2%). To dissolve the lyophilisate, the vial and the diluent shall be shaken vigorously for 1 minute, check whether solution is clear, otherwise continue shaking for another minute until the solution is clear. Administration of 500 μL of the solution has to occur within 1 h after reconstitution. Dissolved lyophilisate may be stored aseptically at room temperature for up to 1 hour following reconstitution.
as §1

[5] = HPLC-assay for stability of peptides in lyophilised formulation on storage for 3 months (Example 4); details: for stability of peptides in formulation, 1 M: 1 month; for stability of peptides in formulation, 2 M: 2 months; for stability of peptides in formulation, 3 M: 3 months
Protocol: as §1

[6] = +mannitol/lutrol, 1 h after reconstitution
[7] = +mannitol/lutrol, 2 h after reconstitution
[8] = +mannitol/lutrol, 3 h after reconstitution
[9] = +mannitol/lutrol, 4 h after reconstitution
[10] = +mannitol/lutrol, 5 h after reconstitution
[11] = +mannitol/lutrol, 6 h after reconstitution
[12] = +mannitol/lutrol, Initial (starting value set to 100%)
[13] = no excipients, 1 h after reconstitution
[14] = no excipients, 2 h after reconstitution
[15] = no excipients, 3 h after reconstitution
[16] = no excipients, Initial (starting value set to 100%)

LAALPHSCL (listed as Homo sapiens) [RGS-001, RGS-5 tumour-associated peptide]
in-use stability, peptide by HPLC-assay [1, 6]: 97.9% | in-use stability, peptide by HPLC-assay [1, 7]: 95.5% | in-use stability, peptide by HPLC-assay [1, 8]: 94.2% | in-use stability, peptide by HPLC-assay [1, 9]: 91.6% | in-use stability, peptide by HPLC-assay [1, 10]: 88.0% | in-use stability, peptide by HPLC-assay [1, 11]: 86.8% | in-use stability, peptide by HPLC-assay [1, 12]: 100.0% | stability after reconstitution (in words) ([1]; Example 2 formulation, 4.2% sodium hydrogen carbonate): decrease | in-use stability, peptide by HPLC-assay [1, 13]: 90.9% | in-use stability, peptide by HPLC-assay [1, 14]: 77.8% | in-use stability, peptide by HPLC-assay [1, 15]: 64.6% | in-use stability, peptide by HPLC-assay [1, 16]: 100.0% | peptide signal in formulations containing TWEEN 80 [2]: enhanced degradation

SLWAGVVVL [CHI-001]
solubility ([3]; 90% acetic acid): ~2900 µg/mL | solubility in water ([3]; water): very insoluble | in-use stability, Peptide [%] ([4]; +Mannitol/Lutrol, 2h): 100.0% | in-use stability, Peptide [%] ([4]; +Mannitol/Lutrol, 6h): 100.2% | in-use stability, Peptide [%] ([4]; +Mannitol/Lutrol, Initial): 100.0% | in-use stability, Peptide [%] ([4]; no excipients, 2h): 102.2% | in-use stability, Peptide [%] ([4]; no excipients, 6h): 90.6% | in-use stability, Peptide [%] ([4]; no excipients, Initial): 100.0%

SVASTITGV (listed as Homo sapiens) [ADF-001, Adipophilin tumour-associated peptide]
in-use stability, peptide by HPLC-assay [1, 6]: 99.6% | in-use stability, peptide by HPLC-assay [1, 7]: 99.6% | in-use stability, peptide by HPLC-assay [1, 8]: 100.7% | in-use stability, peptide by HPLC-assay [1, 9]: 100.8% | in-use stability, peptide by HPLC-assay [1, 10]: 99.9% | in-use stability, peptide by HPLC-assay [1, 11]: 101.8% | in-use stability, peptide by HPLC-assay [1, 12]: 100.0% | in-use stability, peptide by HPLC-assay [1, 13]: 102.4% | in-use stability, peptide by HPLC-assay [1, 14]: 102.4% | in-use stability, peptide by HPLC-assay [1, 15]: 100.0% | in-use stability, peptide by HPLC-assay [1, 16]: 100.0% | peptide signal in formulations containing TWEEN 80 [2]: increase of the signal

TMLARLASA (listed as Homo sapiens) [CSP-001, Chondroitin sulfate proteoglycan 4 peptide]
stability of peptides in formulation, 1 M ([5]; +5° C. +/- 3° C.): 98.99 % of Initial | stability of peptides in formulation, 2 M ([5]; +5° C. +/- 3° C.): 98.05 % of Initial | stability of peptides in formulation, 3 M ([5]; +5° C. +/- 3° C.): 99.81 % of Initial | stability of peptides in formulation, INITIAL ([5]; +5° C. +/- 3° C.): 100.0% | stability of peptides in formulation, 1 M ([5]; +25° C. +/- 2° C.): 98.04 % of Initial | stability of peptides in formulation, 2 M ([5]; +25° C. +/- 2° C.): 96.99 % of Initial | stability of peptides in formulation, 3 M ([5]; +25° C. +/- 2° C.): 98.71 % of Initial | stability of peptides in formulation, INITIAL ([5]; +25° C. +/- 2° C.): 100.0% | stability of peptides in formulation, 1 M ([5]; -20° C. +/- 5° C.): 98.99 % of Initial | stability of peptides in formulation, 2 M ([5]; -20° C. +/- 5° C.): 97.61 % of Initial | stability of peptides in formulation, 3 M ([5]; -20° C. +/- 5° C.): 99.61 % of Initial | stability of peptides in formulation, INITIAL ([5]; -20° C. +/- 5° C.): 100.0% | in-use stability, Peptide [%] ([4]; +Mannitol/Lutrol, 2h): 100.0% | in-use stability, Peptide [%] ([4]; +Mannitol/Lutrol, 4h): 100.1% | in-use stability, Peptide [%] ([4]; +Mannitol/Lutrol, 6h): 99.6% | in-use stability, Peptide [%] ([4]; +Mannitol/Lutrol, Initial): 100.0% | in-use stability, Peptide [%] ([4]; no excipients, 2h): 99.2% | in-use stability, Peptide [%] ([4]; no excipients, 4h): 99.7% | in-use stability, Peptide [%] ([4]; no excipients, 6h): 95.0% | in-use stability, Peptide [%] ([4]; no excipients, Initial): 100.0%
